Data published in the nanobody polyreactivity screen of Harvey et al. (2022).

Experiment: yeast display, Sf9 membrane polyspecificity reagent, FACS + sequencing; frameworks hold sequencing errors
In short: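 A nanobody's polyreactivity label depends on the gate it was sorted from. Yeast display cells were stained with 10% biotinylated, detergent-solubilized Sf9 membrane reagent for 1 hour at 4 °C, enriched on streptavidin microbeads and sorted by FACS. The low and high (top ~1%) gates were set on anti-HA fluorescence for expression and streptavidin fluorescence for reagent binding.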

Sequence | polyreactivity (PSR sort gate)
QVQLEDSGGGLVQAGGSLRLSSAASGSTFAVYAMGWYRQAPGKERELVAAISFSGSTYADSVKGRFTISRDNAKNTVYLQMNSLKPEDTAVYYCAKEYRVFGWWYTKGDYWGQGTQVTVSS | low polyreactivity
QGQLVESGGGLVQAGGSLRLSCAASGSTFPPYRMGWYRQAPGKERELVAAITWRGGRTYYADSVKGRFTISRDNAKNTVYLQMNSLKREDTAVYYCAADYPYQYGRYAGSPGAGRYYWGQGTQVTVSS | high polyreactivity
QVQLVESGGGLVQAGGSLRLSCAASGSIFTFYAMGWYRQAPVKERELVAGIRWRGGTSTFYADSVKGRFTISRDNAKNTVYLQMNSLKPEDTAVYYCAAKRRTGGNGYWGQGTQVTVSS | high polyreactivity
QFQLVESGGGLVQAGGSLRLSCAASGLTFKYYGMGWYRQAPGKERELVATISSGGRTNYADSVKGRFTISRDNAKNTVYLQMNSLKPEDTEVYYCNRPRWYGGSPYYYWGQGTQVTVSS | high polyreactivity
QVQLVESGGGLVQAGGSLRLSCAASGSIFGPYAMGWYRQAPGKERELVATINRGVTTYYADSVKGRFTISRDNAKNTVYLQMNSLKPEDTAVYYCAARTYAKRPGYYWGQGTQVTVSS | high polyreactivity
QVQLVESGGGLFQAGGSLRLSCAASGSIFWGYDMGWYRQPPGKERELGARISYSGGSTSYADSVKGRFTISRDNAKNTVYLQMNSLKPEDTAVYYCAADEGGFWWTYPYDCWGQGTQVSVSS | low polyreactivity
QVQLVESGGGLVQAGGSLRLSCAASGRTFSYYARGWYRQAPGKERELVAAISSGGSTNYADSVKGRFTISRDNAKNTVYFQMNSLKPEDTAVYYCAALWSGYKFNYWGQGTQVTVSS | low polyreactivity
QVQLVESGGGLVQAGGSLRLSWAASGSILLGYAMGWYRQAPGKERELVAAISRNGGSTYYADSVKGRFTISRDNAKNTVYLQMNSLKPEDTAVYYCNKYSGYKGTDGGDYWGQGTQVTVSS | low polyreactivity
QVQLVESGGGLVQAGGSLRLSCAASGRIFGTNAMGWYRQAPGKERELVAAISRSGGSTYYADSVKGRFTISRDNAKNTVYLQMNSLKPEDTAVYYCATDGRHTYYYWGQGTQVTVST | high polyreactivity
QVQLVESGGGLVQAGGSLRLSCAASGRIFRHKAMGWYRQAPGKETELVAAITSRGGTYYADSVKGRFTISRDNAKNTVYLQMNSLKPEDTAFYFCNADQALYSSGNKYDYWGQGTQVTVSS | low polyreactivity
QVQLVESGGGLVQAGGSLRLSCAASGRTFANYVMGWYRQAPGKERELVAGMTGSGGSTYYADSVKGRFTISRDNAKNTVYLQMNSLKPEDTAVYYCAKRYVYVASMGYWGQGTQVTVSS | high polyreactivity
QVQLVESGGGLVQAGGSLRLSCAASGRTFKRNAMGWYRQAPGKERELVAGISGSGTTTYYADSVKGRFTISRDNAKNTVYLQMNSLKPEDTAVYYCAARALSHGARYDYWGQGTQVTVSS | high polyreactivity
QVQLVESGGGLVQAGGTLRLSCAASRITFWYYARGWYIQAPGKERELVAAITSGGSTYYADSVKGRFTISRDNAKNTVYLQMNSLKPEDTAVYYCAKDSVWGAKNLTSYKYYYWGQGTQVTGSS | low polyreactivity
QVQLVDSGGGLVQAGGSLRLSCAASGNIFWENTMGSYRQAPGKERELVASISNTGTTNYADSVKGRFTISRDNAKNTVYLQMNSLKPEDTAVYDCNTDLWIDTASPAPNDDDYWGQGTQVTVSS | low polyreactivity
QVQLVESGGGLVQAGGSLRLSCAASGTIFLVYAMGWYIQAPGKERELVAAITFSGGDTYADSVKGRFTISRDNAKNTVYLQMNSLKPEDTAVYYCNAPWPYYGSVVGQDFDYWGQGTQVTVSS | low polyreactivity
QVQLVESGGGLVQAGGRLRLSCAASGRTFGYNAMGWYRQAPGKERELVAAITYSGGRTYYADSVKGRFTISRDNAKNTVYLQMNSLKPEDTAVYYCAALTRRVKKYDYWGQGTQVTVSS | high polyreactivity
QVQLVESGGALVQAGGSLRLSCAASGRIFGYYAMGWYRQAPGKERELVAAITVSGTSTYYADSVKGRFTISRDNAKNTVYLQMNSLKPEDTAVYYCAARPRRRYYGYDSWGQGTQVTVSS | high polyreactivity
QVQLVESGGGLVQAGGSLRLSCAASGRIFSRYAMGWYRQAPGKERELVATISSGGGTYYADSVKGRFTISRDNAKNTVYLQMNSLKPEDTAVYYCAAASYSGHGRYDDWGQGTQVPVSS | high polyreactivity
QVQLVESGGGLVQAGGSLRLRCAASGSIFISYAMGWYRQAPGKERELVAAISIRGTRTFYADSVKGRFTISRDNAKNTVYLQMNSLKPEDTAVYYCAARAPWPKWGYYYWGQGTQVTVSS | high polyreactivity
QVQLVQSGGGLVKAGGSLRLRCAASGFTFVKYAMGCYRQAPGKERELIAVISRRGGSTYYADSVKGRFTISRDNAKNTVYLQMNSLKPEDSAVYYCAGVYYLYSAWRYDYWGLGTQVTVSS | high polyreactivity
QVQLVESGGGLVQAGGSLRLSCADSGIIFLEYAMGWYRQAPGKERELVAAISSDDGSSTYYADSVKGRFTISRDNAKNTVYLQMNSLKPEDTAVYYCAAYGGGGYYYDYEYWGQGTQVTVSS | high polyreactivity
QVQLVESGGGLVQAGGSLRFSCAASGRTFRYYAMRWYRQAPGKERELVADISSTGRTYYADSVKGRFTISRDNAKNTVYLQMNSLNPEDSAVYYCAADYYSTYRTIYYYWGQGTQVSVSS | low polyreactivity

Sequence | polyreactivity (PSR sort gate)
QVQLVESGGGLVQAGGSLRLSCAASGRTFYSNTMGWYRQAPGNERELVAAISRSGVGTYYADSVKGRFTISRDIAKNSVYLHMNSLKPEDTAVYYCAALPTGKSGYLYDYWGQGTQVTVSS | high polyreactivity
QVHLVESGGGLVQAGGSLRLSCAACGLTFTHYTMGWYRQAPGKERELVAAITTSGGSTYYADSLKGRFTISRDNAKKTVYLQLNSLKPEDTPVYYCAADLGGNSRLDYWGQGTQETVSS | high polyreactivity
QVHLVESGGGLVQAGVSLRLSCAASGSTFGHNAMVWYRQAPGKERELVAAISSIGGSTNYADSVKGRFTISRDNAKNTVYFQMNSLKPEDTAVYYCNAGPGLRYVSPYDYWGQGTQVTVSS | low polyreactivity
QVQLVQSGGGLFQAGGSLRLSCAPSGSIFDPNALGWYRQAPAKERELVAAISSGGSRKYSDSVKGRFTISRDNAKNTVYLQMNRLIPEDTAVYYCDASPRQGMYYWGQGTQVTVSS | high polyreactivity
QVQLVESGGGLVQAGGSLRLSCAASGNIFEYYAMGWYRQAPGKERELVATITSGGSTNYADSVKGRFTISRDNAKNTVYLQMNSLKPEDTAVYYCNADIISVSVYYFIVEYDYWGQGTQVTVSS | low polyreactivity
QVQLVESGGGLVQAGGSLRLSCAASGSTFKYYAKGWYRQAPGKERELVAAISASGGTTYYADSVKGRFTISRDNAKNTVYLQMNSLKPEDTAVYYCAARYLTTFSRTDMEYWGQGTQVTVSS | low polyreactivity
QVQLVESGGGLVQAGGSLRLSCAASGRIFHNNAMGWYIQAPGKERELVAAISTGGSTNYADSVKGRFTISRDNAKNTVYLQMNSLKPEDTAVYYCAADHPVTYPTSKFDYWGQGTQVTVSS | low polyreactivity
QVQLVESGGGLVQAGGSLRLSCAASGRTLFGYAMGWYRQAPGKERELVAAITYGATSTYAHSVKGRFTISRDNAKNTVYLQMNSLKPEDTAVYYCNAYTPTDGFDYWGQGTQVTVSS | low polyreactivity
QVQLVESGGGLVQAGGSLRLSCAASGITLTKNAMGWYRQAPGKERELVAGITRGSRTNYADSVKGRFTISRDNAKNTVYLQMNSLKPEDTAVYYCAASYGPYRGPVGGSKMYYWGQGTQVTVSS | high polyreactivity
QVQLVESGGGIVQAGGSLRLSCAASGFTFAVNAMGWYRQAPGKERELVAGISRRGGNTYYADSVKGRFTISRDNAKNTVYLQMNSLKPEDTAVYYCARYSYSYWGQGTQVTVSS | high polyreactivity
QVQLVESGGGLVQAGGSLRLICAASGYTFYAYAMGWYRQAPGKERELVAAITSGSSTYYADSVKGRFTISRDNAKNTVYLQMNSLKQEDTAVYYCASRIRGWRLLTSYYWGQGTQVTVSS | low polyreactivity
QVQLVESGGGLVQAGGSLRLSFAASGFTFSAYAMGWYRQAPGKERELVASISGSAGSTYYADTVKGRFTISRYNAKNTVYLHMNSLKPEDTAVYYCNARRRQWQARYDYWGQGTQITVSS | high polyreactivity
QVQLVESGGGLVQAGGSLRLSCAASGFIFDGYTMGWYRQAPGKERELVAAISRSGGRTYYADSVKGRFTISRDNAKNTVYLQMNSLKPEDTAVYYCAVRYRQYSQTVASDYGYWGQGTQVTLSS | high polyreactivity
QVQLVESGGGLVQAGGSRRLSCAASGFTFYWYAMGWYRQAPGKERELVAAITRGGRTYYADSVKGRFTISRDNAKNTVYLQMNSLKPEDTAVYYCNAVEFTIAWCYTMDYWGQGIQVTVSS | high polyreactivity
QVQIEESGGGLVQAGGSLRLSCAASGSTFGSYAMGWYRQAPGKEREFVAAISKRGGSTYYADSVKGRFTISRDNAKNTVYLQMNSLKPEDTAVYYCNRRQEYYSLHKTFNYWGQGTQVTVSS | high polyreactivity
QVQLVESGGGLVQAGGSLRLSCAASGRTFKYNAMVWYRQAPGKERELVATISGSGGRKYYADSVKGRFTISRDNAKNTVYLQMNSLKPEDTAVYYCKAPRVKWLDWGQGTKVTVSS | high polyreactivity
QVQLVESGGGLVQAGGSLRLSCAASGSTFSYNAMGWYRQAPGKERELVAAIDANGGSTYYADSVKGRFTISRDNAKNTVYVQMNSLKPEDTAVYYCAAAGYWYYYVPNDSWGQGTQVTVSS | low polyreactivity
QVQLVESGGGLVQAGGSLRLSCAASGSIFYTYAMGWYRQAPGKERELVARIDYSTGNTYYADSVKGRFTISRDNAKNTVYLQMNSLKPEDTAVYYCAARDWSSFTGAYDYWGQGTQVTVSS | high polyreactivity
QVQLVESGGGLVQAGRSLRLSCAASGRIFIWYRMGWYRQAPGKERELVSAITRRGGSTYYADSVKGRFTISRDNAKNTVYLQMNSLKPVDTAVYYCNADAIVSPYRLWTVTYSYWGQGTQVSVSS | low polyreactivity
QVKLVESGGGLVQAGGSLRLSCAASGRIFSYNAMGGYRPEPGKESEVVAAMSDGGGRTYYADSVKGRFTISRDNAKNTVYVQMNSLKPEDTAVYYCAARYSVYYFGQRNGRYGYWGQGTQVTVSS | high polyreactivity
QVQLVDSGGGLVQAGGSLRLSCAASGSTFRRNALGWYRQAPGKERELVAAITRSGGRTYYADSVKGRFTISRDNAKNTVYLQMNSLKPEDTAVYYCAARHAPTRYGYWGQGTQVTVSS | high polyreactivity
